“Also recorded” adds a separate entry of the source. Values belong to the compound of their own block, whether it stands above or below them.
Experiments:
[1] = tested on: MC3R; assay: Effect of divalent ions on cAMP accumulation, MC3R; type: cell-based, human
Procedure: (§1) For assessing the effect of divalent ions on cAMP signaling, HEK293T cells were digested with 0.02% (w/v) EDTA and washed three times with calcium/magnesium-free HBSS buffer. Then the cells were resuspended and stimulated with different concentrations of ligands in Ca^2+-free stimulation buffer (the aforementioned stimulation buffer supplemented with 1 mM EGTA), or with additional 2 mM divalent ions in Ca^2+-free stimulation buffer ([divalent ions] = ~1 mM)[38]. The rest of steps were essentially the same as described above.

[2] = tested on: MC5R; assay: Effect of divalent ions on cAMP accumulation, MC5R; type: cell-based, human
Procedure: as §1

[3] = tested on: MC2R; assay: Effect of divalent ions on cAMP accumulation, MC2R; type: cell-based; conditions: 1 mM Ca^2+ vs divalent ion-free background, HEK293T
Procedure: as §1

[4] = target: wild-type MC2R on cells (UniProt Q01718)
[5] = target: wild-type MC5R on cells (human) (UniProt P33032)
[6] = target: MC5R mutant D115^3.25A (human) (UniProt P33032)
[7] = target: MC3R mutant L128^3.36V (human) (UniProt P41968)
[8] = target: MC3R mutant L128^3.36A (human) (UniProt P41968)
[9] = target: MC5R mutant L99^2.67A (human) (UniProt P33032)
[10] = target: MC5R mutant F254^6.51A (human) (UniProt P33032)
[11] = target: MC5R mutant F118^3.28A (human) (UniProt P33032)
[12] = target: MC5R mutant V126^3.36A (human) (UniProt P33032)
[13] = target: MC5R mutant V126L (human) (UniProt P33032)
[14] = target: MC3R mutant F45^1.39A (human) (UniProt P41968)
[15] = target: wild-type MC1R on cells (UniProt Q01726)
[16] = target: wild-type MC3R on cells (human) (UniProt P41968)
[17] = target: MC3R mutant F45^1.39A (human) (UniProt P41968); remark: listed apart in the source
[18] = target: MC3R mutant D121^3.29A (human) (UniProt P41968)
[19] = target: MC3R mutant I180^4.61A (human) (UniProt P41968)
[20] = target: MC3R mutant H261^6.54A (human) (UniProt P41968)
[21] = target: MC3R mutant F258^6.51A (human) (UniProt P41968)
[22] = target: MC3R mutant I265^6.58M (human) (UniProt P41968)
[23] = target: MC3R mutant I265^6.58Y (human) (UniProt P41968)
[24] = target: MC3R mutant I265^6.58W (human) (UniProt P41968)
[25] = target: MC5R mutant D115^3.25A (human) (UniProt P33032); remark: listed apart in the source
[26] = target: MC5R mutant D119^3.29A (human) (UniProt P33032)
[27] = target: MC5R mutant F254^6.51A (human) (UniProt P33032); remark: listed apart in the source

Chain of MC3R mutant F45^1.39A (human) (P41968 other isoform, or with tags, fused parts or gaps mutant): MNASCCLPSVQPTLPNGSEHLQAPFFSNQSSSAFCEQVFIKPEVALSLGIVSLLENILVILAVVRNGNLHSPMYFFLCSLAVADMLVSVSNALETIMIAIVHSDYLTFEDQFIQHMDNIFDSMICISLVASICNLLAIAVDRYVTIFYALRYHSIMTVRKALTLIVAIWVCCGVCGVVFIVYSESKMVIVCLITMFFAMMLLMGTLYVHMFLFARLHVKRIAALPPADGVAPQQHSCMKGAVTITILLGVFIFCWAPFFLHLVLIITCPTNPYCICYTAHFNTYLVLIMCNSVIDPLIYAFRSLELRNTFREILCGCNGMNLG
Chain of MC5R mutant F254^6.51A (human) (P33032 other isoform, or with tags, fused parts or gaps mutant): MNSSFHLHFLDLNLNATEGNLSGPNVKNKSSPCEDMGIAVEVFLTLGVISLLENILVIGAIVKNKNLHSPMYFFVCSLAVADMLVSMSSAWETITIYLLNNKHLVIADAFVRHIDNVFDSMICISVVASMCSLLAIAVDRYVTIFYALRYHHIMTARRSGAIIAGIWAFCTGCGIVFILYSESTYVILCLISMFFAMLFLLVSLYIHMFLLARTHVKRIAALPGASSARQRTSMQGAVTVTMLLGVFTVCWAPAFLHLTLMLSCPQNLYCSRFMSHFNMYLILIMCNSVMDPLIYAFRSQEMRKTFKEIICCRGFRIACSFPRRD
Chain of MC5R mutant D115^3.25A (human) (P33032 other isoform, or with tags, fused parts or gaps mutant): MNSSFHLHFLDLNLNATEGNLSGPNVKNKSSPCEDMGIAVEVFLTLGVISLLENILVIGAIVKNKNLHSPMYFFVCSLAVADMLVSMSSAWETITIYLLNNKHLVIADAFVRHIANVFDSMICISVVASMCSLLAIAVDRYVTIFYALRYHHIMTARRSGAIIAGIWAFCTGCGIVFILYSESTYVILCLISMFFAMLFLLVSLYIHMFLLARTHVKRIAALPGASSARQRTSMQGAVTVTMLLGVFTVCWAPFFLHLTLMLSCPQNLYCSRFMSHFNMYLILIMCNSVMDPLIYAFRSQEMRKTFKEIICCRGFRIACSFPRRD
Chain of wild-type MC5R on cells (human) (P33032 whole entry): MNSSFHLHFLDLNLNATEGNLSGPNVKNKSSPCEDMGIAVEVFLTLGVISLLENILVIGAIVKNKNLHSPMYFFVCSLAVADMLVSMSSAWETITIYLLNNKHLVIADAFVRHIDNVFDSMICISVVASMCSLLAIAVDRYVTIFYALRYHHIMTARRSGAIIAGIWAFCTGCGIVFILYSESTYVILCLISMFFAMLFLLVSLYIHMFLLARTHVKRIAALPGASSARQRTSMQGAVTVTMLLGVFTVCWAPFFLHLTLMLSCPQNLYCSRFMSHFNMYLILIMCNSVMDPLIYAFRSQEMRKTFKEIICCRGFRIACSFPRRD
Chain of MC5R mutant V126^3.36A (human) (P33032 other isoform, or with tags, fused parts or gaps mutant): as the sequence (P33032 whole entry) above, with V126A counted along it
Chain of MC3R mutant H261^6.54A (human) (P41968 other isoform, or with tags, fused parts or gaps mutant): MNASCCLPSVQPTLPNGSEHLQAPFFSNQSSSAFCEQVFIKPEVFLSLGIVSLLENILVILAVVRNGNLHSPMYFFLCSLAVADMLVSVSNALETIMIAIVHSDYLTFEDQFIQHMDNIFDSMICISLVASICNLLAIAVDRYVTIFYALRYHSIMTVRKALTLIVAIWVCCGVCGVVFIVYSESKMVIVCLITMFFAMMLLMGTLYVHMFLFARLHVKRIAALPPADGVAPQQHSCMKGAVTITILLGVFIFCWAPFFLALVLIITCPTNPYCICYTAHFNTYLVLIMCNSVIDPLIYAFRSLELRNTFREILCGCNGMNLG
Chain of MC5R mutant V126L (human) (P33032 whole entry V126L): as the sequence (P33032 whole entry) above, with V126L counted along it
Chain of MC3R mutant F258^6.51A (human) (P41968 other isoform, or with tags, fused parts or gaps mutant): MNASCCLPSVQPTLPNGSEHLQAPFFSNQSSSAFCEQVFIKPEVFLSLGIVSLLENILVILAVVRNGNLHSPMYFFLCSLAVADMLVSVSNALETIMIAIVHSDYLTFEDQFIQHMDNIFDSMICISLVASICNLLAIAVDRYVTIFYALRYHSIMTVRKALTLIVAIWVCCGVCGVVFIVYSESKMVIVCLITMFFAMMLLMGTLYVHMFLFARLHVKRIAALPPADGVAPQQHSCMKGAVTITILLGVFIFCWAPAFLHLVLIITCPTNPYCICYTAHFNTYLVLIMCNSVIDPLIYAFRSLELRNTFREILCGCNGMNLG
Chain of wild-type MC2R on cells (Q01718 whole entry): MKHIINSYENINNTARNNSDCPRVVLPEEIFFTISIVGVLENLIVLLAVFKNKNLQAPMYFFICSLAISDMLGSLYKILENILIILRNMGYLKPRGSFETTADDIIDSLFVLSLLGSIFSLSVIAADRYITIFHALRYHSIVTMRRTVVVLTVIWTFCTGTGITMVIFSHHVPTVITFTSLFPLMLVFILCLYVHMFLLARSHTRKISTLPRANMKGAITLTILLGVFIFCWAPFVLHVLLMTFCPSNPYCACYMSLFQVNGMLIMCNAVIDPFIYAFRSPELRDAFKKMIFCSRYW
Chain of MC5R mutant F118^3.28A (human) (P33032 other isoform, or with tags, fused parts or gaps mutant): as the sequence (P33032 whole entry) above, with F118A counted along it
Chain of MC3R mutant I265^6.58Y (human) (P41968 other isoform, or with tags, fused parts or gaps mutant): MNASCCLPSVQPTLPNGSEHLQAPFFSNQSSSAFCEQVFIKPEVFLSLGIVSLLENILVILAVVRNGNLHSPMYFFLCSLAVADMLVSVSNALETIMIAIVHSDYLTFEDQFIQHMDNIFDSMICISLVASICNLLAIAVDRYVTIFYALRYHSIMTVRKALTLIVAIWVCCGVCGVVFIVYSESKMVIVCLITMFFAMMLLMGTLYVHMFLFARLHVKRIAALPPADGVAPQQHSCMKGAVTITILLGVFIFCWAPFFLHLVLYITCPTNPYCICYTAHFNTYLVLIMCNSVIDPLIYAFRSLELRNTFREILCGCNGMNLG
Chain of MC3R mutant I265^6.58M (human) (P41968 other isoform, or with tags, fused parts or gaps mutant): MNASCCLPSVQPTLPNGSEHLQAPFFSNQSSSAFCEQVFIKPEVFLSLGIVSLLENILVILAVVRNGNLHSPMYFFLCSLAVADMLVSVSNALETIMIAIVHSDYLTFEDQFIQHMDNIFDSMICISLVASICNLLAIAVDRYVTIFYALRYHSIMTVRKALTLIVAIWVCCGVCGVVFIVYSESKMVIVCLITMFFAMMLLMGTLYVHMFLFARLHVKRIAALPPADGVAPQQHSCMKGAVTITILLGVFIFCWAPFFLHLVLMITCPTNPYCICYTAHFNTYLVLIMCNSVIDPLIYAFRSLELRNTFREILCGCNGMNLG
Chain of MC3R mutant L128^3.36A (human) (P41968 other isoform, or with tags, fused parts or gaps mutant): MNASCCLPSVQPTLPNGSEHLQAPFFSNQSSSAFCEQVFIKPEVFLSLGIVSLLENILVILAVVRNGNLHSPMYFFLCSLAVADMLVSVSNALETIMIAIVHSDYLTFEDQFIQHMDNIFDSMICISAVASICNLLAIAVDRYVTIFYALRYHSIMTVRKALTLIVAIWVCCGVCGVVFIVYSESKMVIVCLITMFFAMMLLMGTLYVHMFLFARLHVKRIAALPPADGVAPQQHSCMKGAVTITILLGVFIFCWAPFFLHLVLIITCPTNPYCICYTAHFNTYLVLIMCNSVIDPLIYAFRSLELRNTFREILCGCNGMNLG
Chain of MC3R mutant I265^6.58W (human) (P41968 other isoform, or with tags, fused parts or gaps mutant): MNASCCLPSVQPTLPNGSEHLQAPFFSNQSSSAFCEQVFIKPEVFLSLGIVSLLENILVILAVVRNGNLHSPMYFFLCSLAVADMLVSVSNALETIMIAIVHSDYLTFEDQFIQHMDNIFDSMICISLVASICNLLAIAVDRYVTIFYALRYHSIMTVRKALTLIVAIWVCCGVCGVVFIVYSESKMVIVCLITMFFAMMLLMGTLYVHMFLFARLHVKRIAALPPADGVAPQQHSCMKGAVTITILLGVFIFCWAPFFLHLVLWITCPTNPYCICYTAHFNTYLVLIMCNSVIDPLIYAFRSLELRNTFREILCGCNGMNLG
Chain of wild-type MC3R on cells (human) (P41968 whole entry): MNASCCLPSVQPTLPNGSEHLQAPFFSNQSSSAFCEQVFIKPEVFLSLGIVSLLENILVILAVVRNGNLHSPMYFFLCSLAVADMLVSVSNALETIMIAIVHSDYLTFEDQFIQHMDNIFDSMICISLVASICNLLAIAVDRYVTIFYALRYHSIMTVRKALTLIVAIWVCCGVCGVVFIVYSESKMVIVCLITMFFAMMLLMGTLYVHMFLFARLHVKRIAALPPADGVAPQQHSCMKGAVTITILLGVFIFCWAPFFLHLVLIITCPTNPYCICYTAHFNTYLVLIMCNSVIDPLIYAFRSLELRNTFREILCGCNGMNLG

Compound: [Mg+2] [Mg^2+, magnesium ion]
effect of Mg^2+ on Gs signaling ([1]; 1 mM Mg^2+): neglectable impact; also recorded: little impact
effect of Mg^2+ on Gs signaling ([2]; 1 mM Mg^2+): neglectable impact; also recorded: little impact

Compound: [Zn+2] [Zn^2+, zinc ion]
effect of Zn^2+ on ligand-induced cAMP response ([1]; 1 mM Zn^2+, γ-MSH): dramatic reduction of cAMP response; also recorded: inhibited the efficacy
effect of Zn^2+ on ligand-induced cAMP response ([2]; 1 mM Zn^2+, α-MSH or PG-901): dramatic reduction of cAMP response; also recorded: inhibited the efficacy

Compound: adrenocorticotropic hormone (SYSMEHFRWGKPVGKKRRPVKVYPNGAEDESAEAFPLEF; Corticotropin; UniProt P01189 138-176, looked up) [ACTH]
increase of potency by Ca^2+ [3]: 6309 fold

ACTH-induced cAMP accumulation, HEK293T cells; fold increase of potency with 1 mM Ca2+ against a divalent ion-free background [4]: 6310 fold
Compound: adrenocorticotropic hormone (peptide)

PG-901-induced cAMP accumulation, HEK293T cells; fold increase of potency with 1 mM Ca2+ against a divalent ion-free background [5]: 230 fold
PG-901-induced cAMP accumulation, HEK293T cells; fold reduction against WT [6]: 43 fold
PG-901-induced cAMP response, HEK293T cells; EC50 [7]: 0.032 µM
PG-901-induced cAMP response, HEK293T cells; EC50 [8]: 0.25 µM
PG-901-induced cAMP accumulation, HEK293T cells; fold reduction against WT [9]: 10 fold
PG-901-induced cAMP accumulation, HEK293T cells; fold decrease of potency against WT [10]: 44 fold
PG-901-induced cAMP accumulation, HEK293T cells; fold reduction against WT [11]: 4 fold
PG-901-induced cAMP accumulation, HEK293T cells; fold decrease of potency against WT [12]: 8 fold
PG-901-induced cAMP responses, HEK293T cells; fold reduction against WT [13]: 16 fold
Compound: PG-901 (peptide)

fold reduction of binding affinity against the wild type [14]: 48 fold
γ-MSH-induced cAMP accumulation, HEK293T cells; fold increase of potency with 1 mM Ca2+ against a divalent ion-free background [15]: 294 fold
γ-MSH-induced cAMP accumulation, HEK293T cells; fold increase of potency with 1 mM Ca2+ against a divalent ion-free background [16]: 407 fold
γ-MSH-induced cAMP accumulation, HEK293T cells; fold reduction of potency against WT [17]: 126 fold
γ-MSH-induced cAMP accumulation, HEK293T cells; fold decrease of potency against WT [18]: 22 fold
γ-MSH-induced cAMP accumulation, HEK293T cells; fold decrease of potency against WT [19]: 22 fold
γ-MSH-induced cAMP accumulation, HEK293T cells; fold decrease of potency against WT [20]: 32 fold
γ-MSH-induced cAMP accumulation, HEK293T cells; fold decrease of potency against WT [21]: 30 fold
γ-MSH-induced cAMP accumulation, HEK293T cells; fold decrease of potency against WT [22]: 3 fold
γ-MSH-induced cAMP accumulation, HEK293T cells; fold decrease of potency against WT [23]: 4 fold
γ-MSH-induced cAMP accumulation, HEK293T cells; fold decrease of potency against WT [24]: 18 fold
Compound: γ-MSH (peptide)

α-MSH-induced cAMP accumulation, HEK293T cells; fold increase of potency with 1 mM Ca2+ against a divalent ion-free background [5]: 182 fold
α-MSH-induced cAMP accumulation, HEK293T cells; fold decrease of potency against WT [25]: 269 fold
α-MSH-induced cAMP accumulation, HEK293T cells; fold reduction against WT [26]: 447 fold
α-MSH-induced cAMP accumulation, HEK293T cells; fold decrease of potency against WT [27]: > 100 fold
Compound: α-MSH (peptide)
